Experimental data: patent publication US6375945B1, “Adjuvant compositions for vaccines” (SmithKline Beecham Biologicals s.a., priority 1997, dated 2002)

What was measured:
[1] = Enhancement of the effect of the QS21/MPL adjuvant by other cytokines
P1983 cells = test: IL12 dose curve: CTL activity in mice receiving peptide P198 + DQS21/3D-MPL + various doses of IL12; assay type: in vivo, DBA/2 mice; details: with P198 peptide and DQS21/3D-MPL
Experimental: DBA/2 mice were injected s.c. in the two footpads with 50 μg of P198 peptide ([…]), corresponding to the antigen expressed by the P198 TUM—clone (Sibille et al., J. Exp. Med., 1990: 172, 35-45), mixed with the DQS21/3D-MPL adjuvant (adjuvant) 100 μl final. […] This murine IL12 was purified from the supernatant of transfected P1HTR cells as described in Gajewski et al. (J. Immunol. 1995, 154: 5637-5648). […] On day 16, the mice were bled and stimulation of blood lymphocytes was performed by mixing 3×10^5 Ficoll purified lymphocytes with […] stimulating cells (100 Gy) and 2×10^6 irradiated normal syngeneic spleen cells (30 Gy) as feeder cells. The stimulating cells were P1983 cells, an azaguanine-resistant variant derived from the P198 TUM-clone. The cells were incubated in 48-well plates in a final volume of 0,8 ml MLTC medium described in Warnier et al. (Int. J. Cancer, 1996, 67, 303-310). Seven days later, CTL activity was measured in a standard chromium-release assay using 1,000 5^1Cr-labelled targets. […] Specific lytic units were calculated by subtracting the values obtained with the negative targets (usually less than 0,3 LU) from those obtained with the positive target. Mice were scored as ± when the LU detected were comprised between 0,1 and 1; + when LU were comprised between 1 and 10; and ++ above 10 LU. […]

[2] = mouse, in vivo

GM-CSF: cytokine
enhancement of the effect of the QS21/MPL adjuvant [1]: unable to enhance

IL-6: cytokine
enhancement of the effect of the QS21/MPL adjuvant [1]: unable to enhance

B1: IL12: murine IL12 purified from the supernatant of transfected P1HTR cells; heterodimeric cytokine (protein, UniProt P43431 23-215; P43432 23-335, looked up)
Interleukin-12 subunit alpha: RVIPVSGPARCLSQSRNLLKTTDDMVKTAREKLKHYSCTAEDIDHEDITRDQTSTLKTCLPLELHKNESCLATRETSSTTRGSCLPPQKTSLMMTLCLGSIYEDLKMYQTEFQAINAALQNHNHQQIILDKGMLVAIDELMQSLNHNGETLRQKPPVGEADPYRVKMKLCILLHAFSTRVVTINRVMGYLSSA
Interleukin-12 subunit beta: MWELEKDVYVVEVDWTPDAPGETVNLTCDTPEEDDITWTSDQRHGVIGSGKTLTITVKEFLDAGQYTCHKGGETLSHSHLLLHKKENGIWSTEILKNFKNKTFLKCEAPNYSGRFTCSWLVQRNMDLKFNIKSSSSSPDSRAVTCGMASLSAEKVTLDQRDYEKYSVSCQEDVTCPTAEETLPIELALEARQQNKYENYSTSFFIRDIIKPDPPKNLQMKPLKNSQVEVSWEYPDSWSTPHSYFSLKFFVRIQRKKEKMKETEEGCNQKGAFLVEKTSTEVQCKGGNVCVQAQDRYYNSSCSKWACVPCRVRS
effect of IL12 on CTL activity (P1983 cells; IL12 dose/mouse/day 10 ng (100U)): nearly fully maintained
effect of IL12 on CTL activity (P1983 cells; IL12 only 30 ng (so in the source)): disappeared
systemic toxicity [2]: largely reduced but not totally absent

B2: IL-7: cytokine (protein, UniProt P13232 26-177, looked up)
Interleukin-7: DCDIEGKDGKQYESVLMVSIDQLLDSMKEIGSNCLNNEFNFFKRHICDANKEGMFLFRAARKLRQFLKMNSTGDFDLHLLKVSEGTTILLNCTGQVKGRKPAALGEAQPTKSLEENKSLKEQKKLNDLCFLKRLLQEIKTCWNKILMGTKEH
enhancement of the effect of the QS21/MPL adjuvant [1]: unable to enhance

B3: IFN-γ: cytokine (protein, UniProt P01579 24-161, looked up)
Interferon gamma: QDPYVKEAENLKKYFNAGHSDVADNGTLFLGILKNWKEESDRKIMQSQIVSFYFKLFKNFKDDQSIQKSVETIKEDMNVKFFNSNKKKRDDFEKLTNYSVTDLNVQRKAIHELIQVMAELSPAAKTGKRKRSQMLFRG
enhancement of the effect of the QS21/MPL adjuvant [1]: unable to enhance
